Assay results published in publication PMC12093452.

Molecular target: Postsynaptic density lattice (PSDL) preparation (OG-11U-IS) (rat)
Test: negative-staining electron microscopy of grid-immobilised structures incubated with polymerizing tubulin; PSDL or PSD immobilised on the Formvar membrane of an EM grid, blocked with NGS and BSA at 0°C and 37°C, placed on a droplet of tubulin (ML116, 2 mg/mL, GTB, 1 mM GTP, 5% glycerol) polymerizing at 37°C; fixed with 1% glutaraldehyde, stained with nano-W

Tubulin MAP-rich, ML116, Cytoskeleton Inc. (from UniProt P02550 1-451) (complex)
percent of MT ends associated with PSDL and/or PSDL-like structures: 30.9%
